The target in data set [1] is TAR RNA. Set-up: method as in PMID 19584251. The following applies: EMSA; read-out: Kd determined by EMSA; cited from earlier work.
Data set [2] has as its target T1, Tat (ARM)-TAR RNA interaction (Human immunodeficiency virus type 1 group M subtype B, UniProt P04608).
T1 construct: purchased Peptron, Daejeon, Republic of Korea (custom peptide synthesis); host or cells: chemical synthesis
As to the kind of experiment: TR-FRET assay with biotinylated ARM and Eu-conjugated StAV. Type of data set: binding, HIV-1. The settings on record: five-thousand-fold excess. From the text: Initially, a simplified TR-FRET assay was designed to determine the interaction of Tat (ARM)-TAR RNA using 5′-cyanine 5 (Cy5)-labeled TAR RNA (31 nt) and Tat (ARM) tagged with either biotin, HA, FLAG, or FITC; this was based on size-minimalized analytes to focus on the essential biochemical relevance of the Tat-TAR RNA interaction. After Tat (ARM) binds to the TAR RNA, each Eu-conjugated antibody recognized the cognate tag on the Tat (ARM) peptide. When the reaction is irradiated with a 320 nm laser, the emissive energy from the donor Eu chelate is then transferred to the Cy5 dye-labeled to TAR RNA placed at a close distance (~10 nm), resulting in luminescence at 665 nm from Cy5 and 615 nm from Eu. A certain substance inhibiting the Tat-TAR RNA interaction causes the loss of luminescence in the sample at 665 nm emission (Figure 1A). To determine which Eu-conjugated recognizer (anti-Flag, -HA, FITC antibodies, or streptavidin) is appropriate for successfully establishing the TR-FRET assay, 20 nM of ARM tagged with each epitope and the same concentration of Cy5-labeled TAR RNA fragment were incubated with 5 nM of cognate Eu-conjugated recognizer.
StAV-Eu + + + + + + + + + + + + + + + + + + + + + + StAV-Eu + + + + + + + + + + + + […]
Bio-ARM + + + + + + + + + + + + + + + + + + + + + Biotin-ARM - + - + - + - + - + - +
Competitor BSA ARM L-22 LK-3 L-50
Figure S1. […]
For orientation: Time-resolved FRET reads energy transfer from a long-lived donor to a nearby acceptor.

Data set [3] relates to Tat (ARM)-TAR RNA interaction. The protocol: To test whether our assay is applicable for screening specific inhibitors of the Tat-TAR RNA interaction, inhibition assays were performed with known inhibitors of the Tat-TAR RNA interaction. […] A dose–response competition assay was conducted at inhibitor concentrations of 0–100 μM to determine their inhibitory curves in our assay. […] Additionally, a dose-responsive competition assay using RNA fragments was performed to validate the specificity of the assay.
Data are expressed as the mean ± SD (n = 3) compared to a control lacking an RNA competitor.
The indicated concentrations of ARM and Cy5-TAR RNA fragments were incubated in 20 μL of 1× LANCE ultra assay buffer in 384-well microtiter plates with or without inhibitor (competitor) for 30 min at 20 °C in the dark. […] The reaction was performed in a final volume of 25 μL. Small volumes of the reaction solution were added automatically using Assist-Plus (Integra Bioscience, Zisers, Switzerland). After adding all the assay components, the plates were sealed with a clear cover. The ARM-TAR RNA interaction signal was measured in an EnSight multimode plate reader (PerkinElmer) using the LANCE protocol of the time-resolved fluorescence (TRF) mode in the Kaleido software (PerkinElmer), according to the manufacturer’s protocol. Briefly, the excitation light was directed to the donor (Eu) from the Xenon flash lamp at 320 nm selected by an optical filter, and then, an integration time of 100 μs and a delay time of 70 μs were provided to remove short-lived background signals; subsequently, two emission lights were detected at 615 nm for the donor (Eu) and 665 nm for the acceptor (Cy5). The TRF was measured from the top using an excitation filter and emission monochromators in a single measurement mode. The TR-FRET output signal was expressed as the emission ratio of acceptor/donor (665/615 nm × 1000) fluorescence counts. The fold activity of the TR-FRET signal for ARM-TAR RNA interaction was calculated compared to the control reaction lacking the ARM peptide.

Data set [4] relates to HIV-1. The following applies: read-out: IC50 of HIV-1 infection; cited from earlier work.
The subject of data set [5] is L-51 cyclic peptide. As to the kind of experiment: TR-FRET competition.
The subject of data set [6] is LK3 peptide. As to the kind of experiment: TR-FRET competition.
For data set [7], the system named is L-22 cyclic peptide. As to the kind of experiment: TR-FRET competition.
The test system of data set [8] is L-50 cyclic peptide. As to the kind of experiment: TR-FRET competition.
The target in data set [9] is T2, Flag-Tat (ARM) (HIV-1 NL4-3, UniProt P04608).
T2 chain: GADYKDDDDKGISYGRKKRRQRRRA
As to the kind of experiment: TR-FRET; 50 nM each. The settings on record: tags: N-terminal FLAG; label: 5'-Cy5; hairpin without bulge.

Data set [10] has as its target T2, Flag-Tat (ARM). As to the kind of experiment: TR-FRET; up to 100 nM each; Eu-anti-Flag 5 nM. The settings on record: tags: N-terminal FLAG; label: 5'-Cy5; hairpin with UCU bulge.
Data set [11] has as its target T3, Biotin-Tat (ARM) (HIV-1 NL4-3, UniProt P04608).
T3 chain: Biotin-GISYGRKKRRQRRRA
Nature of the data set: TR-FRET; 20 nM each; Eu-StAV; poorly competed by free ARM and L-22. The settings on record: tags: N-terminal biotin; label: 5'-Cy5; hairpin with UCU bulge.

Data set [12] deals with T4, Tat (ARM), tag-free (HIV-1 NL4-3, UniProt P04608).
T4 chain: GISYGRKKRRQRRRA
As to the kind of experiment: competition; TR-FRET, 10-fold excess over Flag-ARM. The following applies: label: 5'-Cy5; hairpin with UCU bulge.

Square brackets hold non-standard residues; d marks the D form. Ends that are not written are not given here. Peptide text beside a SMILES is read from it. * marks the point of attachment. Biotin = O=C1N[C@H]2[C@H](CS[C@H]2CCCCC(=O)*)N1

The values that follow come from paper PMC10252837, “A Novel Time-Resolved Fluorescence Resonance Energy Transfer Assay for the Discovery of Small-Molecule Inhibitors of HIV-1 Tat-Regulated Transcription” (International Journal of Molecular Sciences, 2023).

Regarding `CC[C@H](C)[C@@H]1NC(=O)[C@H](CCCNC(=N)N)NC(=O)[C@H](CCCNC(=N)N)NC(=O)CNC(=O)[C@H](CCCCN)NC(=O)[C@H](CCCNC(=N)N)NC(=O)[C@H]([C@@H](C)O)NC(=O)[C@H](CCCNC(=N)N)NC(=O)[C@H](C(C)C)NC(=O)[C@H](CCCNC(=N)N)NC(=O)[C@@H]2CCCN2C(=O)[C@H]2CCCN2C(=O)[C@H]([C@@H](C)CC)NC(=O)[C@H](CCCNC(=N)N)NC1=O` [Hit L-22] (cyclo(RVRTRKGRRIRI[dP]P)), the Kd (as a rule, a measure of binding affinity in units of concentration) in data set [1] is 30 nM. Also, the “inhibition of TR-FRET signal, in words” value in [2] is “insufficient inhibition”. Moreover, the IC50 (as a rule, the concentration at which inhibition is half-maximal) in data set [3] (read-out: IC50 of ARM-TAR RNA interaction (TR-FRET competition), 50 nM Flag-ARM and 5′-Cy5-TAR RNA, inhibitor 0-100 μM) came to 228 nM.

`Nc1ccc2oc(-c3cc(F)c(F)cc3Cl)nc2c1` [Hit T0516-4834]: the IC50 in data set [4] was 200 nM.

In the case of “GGCCAGAUCUGAGCCUGGGAGCUCUCUGGCC [Cy5-TAR RNA (31 nt)]”, the IC50 amounted to 276 nM in data set [5], 67.8 nM in data set [6], 228 nM in [7] and 95.9 nM in data set [8].

GISYGRKKRRQRRRA [ARM]: in data set [2], the “inhibition of TR-FRET signal, in words” value is given as “insufficient inhibition”. The “inhibition of TR-FRET signal” value in data set [3] (500 nM competitor, control of primary screen) is ~ 70%. For the same molecule, in data set [3] (10-fold excess competitor, 50 nM analytes), the “TR-FRET signal in peptide/protein competition assay, in words” value was “significantly decreased”.

GGCCAGAGAGCCUGGGAGCUCUCUGGCC (structured_RNA) [Cy5-mt TAR RNA (28 nt, bulge-free)]: in data set [9], the binding result is reported as “no binding”.

Take GGCCAGAUCUGAGCCUGGGAGCUCUCUGGCC (structured_RNA) [Cy5-TAR RNA (31 nt)]: in [10], the binding signal is ~11 fold signal over background. In addition, the binding result in [11] and in [12] was “binds” in each case.
